Publication PMC10564760, “A human monoclonal antibody binds within the poliovirus receptor-binding site to neutralize all three serotypes” (Nature Communications, 2023)

T1: wild-type poliovirus type 2 capsid (Poliovirus type 2, wild type; strain …, strain)
T1 construct: also called WTPV2; wild-type PV2; copies: + + +
T1 chain 1: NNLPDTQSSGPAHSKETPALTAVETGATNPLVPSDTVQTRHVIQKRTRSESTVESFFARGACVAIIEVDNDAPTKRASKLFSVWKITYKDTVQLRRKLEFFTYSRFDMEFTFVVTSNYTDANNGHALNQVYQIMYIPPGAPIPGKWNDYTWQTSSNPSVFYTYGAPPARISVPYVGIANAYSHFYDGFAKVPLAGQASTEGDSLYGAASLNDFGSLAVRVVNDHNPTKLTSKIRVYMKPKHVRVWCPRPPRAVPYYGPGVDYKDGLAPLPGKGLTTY
T1 chain 2: not shown
T1 chain 3: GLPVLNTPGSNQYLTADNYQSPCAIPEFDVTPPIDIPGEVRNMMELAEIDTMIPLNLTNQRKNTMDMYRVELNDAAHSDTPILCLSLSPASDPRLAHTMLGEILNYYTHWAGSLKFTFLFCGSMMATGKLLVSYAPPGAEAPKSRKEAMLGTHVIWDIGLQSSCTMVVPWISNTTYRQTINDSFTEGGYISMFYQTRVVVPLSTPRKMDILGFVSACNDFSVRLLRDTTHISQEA

T2: wild-type poliovirus serotype 2 capsid (Poliovirus type 2, wild type; strain …, strain)
T2 construct: also called WTPV2; wild-type PV2; copies: + + +
T2 chain 1: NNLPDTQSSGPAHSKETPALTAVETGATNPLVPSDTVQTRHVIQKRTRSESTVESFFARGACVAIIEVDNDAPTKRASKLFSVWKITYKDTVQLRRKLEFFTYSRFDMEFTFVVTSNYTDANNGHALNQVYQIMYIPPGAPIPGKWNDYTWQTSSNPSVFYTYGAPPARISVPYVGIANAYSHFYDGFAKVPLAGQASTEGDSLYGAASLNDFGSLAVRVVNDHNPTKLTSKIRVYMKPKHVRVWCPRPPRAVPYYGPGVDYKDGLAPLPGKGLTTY
T2 chain 2: not shown
T2 chain 3: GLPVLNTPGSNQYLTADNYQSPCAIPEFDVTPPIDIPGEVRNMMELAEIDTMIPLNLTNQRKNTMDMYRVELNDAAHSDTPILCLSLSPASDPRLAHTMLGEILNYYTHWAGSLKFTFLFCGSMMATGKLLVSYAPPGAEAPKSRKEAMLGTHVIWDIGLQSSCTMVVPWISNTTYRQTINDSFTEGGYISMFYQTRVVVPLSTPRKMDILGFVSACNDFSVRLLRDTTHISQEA

B1: 9H2 fragment antigen-binding (Fab) (Fab, V domains shown)
VH: LVQSGAELKKPGASVKFSCQASGFTFTTYDIHWVRQAPGQGLEWMGMISPSRDSTIYAQKFQGRVTMTSDTSTSTVYMELTSLRSEDTALYYCATASRPSAWVFRSLYTYYYMDVWGTGTTVTVSS
VL: QSALTQPASVSGSPGQSITISCTGTITDIGYYNYVSWYQQHPGKAPKLIIFDVTNRPSGVSDRFSGSKSGNTASLTISGLQAEDEGDYYCFSHRSNNIRVFGGGTKLTVL
notes: also called 9H2 Fab; Fab 9H2
B2: 9H2 fragment antigen-binding (Fab) (Fab, V domains shown)
VH: LVQSGAELKKPGASVKFSCQASGFTFTTYDIHWVRQAPGQGLEWMGMISPSRDSTIYAQKFQGRVTMTSDTSTSTVYMELTSLRSEDTALYYCATASRPSAWVFRSLYTYYYMDVWGTGTTVTVSS
VL: QSALTQPASVSGSPGQSITISCTGTITDIGYYNYVSWYQQHPGKAPKLIIFDVTNRPSGVSDRFSGSKSGNTASLTISGLQAEDEGDYYCFSHRSNNIRVFGGGTKLTVL
notes: also called 9H2 Fab; Fab 9H2

Assays:
Details in all cases: both partners purified
[1] = molecular target: T3, Sabin poliovirus type 1 capsid (live) (Poliovirus type 1, Sabin (live), UniProt P03301, strain, biotin (EZ-Link Micro Sulfo-NHS-Biotinylation Kit) | biotin (EZ-Link Micro Sulfo-NHS-Biotinylation Kit) | biotin (EZ-Link Micro Sulfo-NHS-Biotinylation Kit)); assay: BLI
T3 construct: also called SPV1; Sabin serotype 1; copies: + + +

[2] = molecular target: T4, Sabin inactivated poliovirus type 2 capsid (Poliovirus type 2, Sabin strain …, strain); assay: BLI
T4 construct: also called SIPV2; ISPV2; copies: + + +

[3] = molecular target: T1, wild-type poliovirus type 2 capsid; assay: cryo-EM structure
[4] = molecular target: T2, wild-type poliovirus serotype 2 capsid; assay: cryo-EM structure

Row | Binder | Kd [1] [µM] | koff [1] [s⁻¹] | kon [1] [M⁻¹ s⁻¹] | Kd [2] [µM] | koff [2] [s⁻¹] | kon [2] [M⁻¹ s⁻¹] | binding result [3] | binding result [4]
1 | B1 | 936 | 1.05 | 1120 | 2.1 | 0.483 | 230000 | binds | 
2 | B2 |  |  |  |  |  |  |  | binds
